# What was measured:
# [1] = Mathematical model of in vivo disposition of drug-dendrimer conjugates; set-up: species or system mouse; conditions: best fit of Eq. (3) to released AZD4320 in RS4;11 tumour
# [2] = system: SUDHL-4 xenograft; assay: SUDHL-4 xenograft efficacy and survival; assay type: in vivo, C.B-17 SCID mouse
# Protocol: Female C.B.−17 SCID mice were purchased from Charles River Laboratories. Mice were 5–8 weeks old at the time of tumour implantation. All xenograft studies were conducted at our Association for the Assessment and Accreditation of Laboratory Animal Care accredited facility in Waltham, MA in accordance with ethical regulations described in the guidelines established by the internal Institutional Animal Care and Use Committee. The dendrimer conjugates were formulated in citrate/phosphate buffer pH 5.0, diluted 1:10 with 5% glucose containing 1% w/v Kolliphor HS15, and AZD4320 was formulated in 30% HP-β-CD and dosed as a weekly intravenous (IV) administration at a volume of 5 ml/kg at the indicated doses. Five million RS4;11, five million SUDHL-4 or five million OCI-LY-10 cells were injected subcutaneously in the right flank of mice in a volume of 0.1 ml. Tumour volumes (measured by caliper), animal body weight, and tumor condition were recorded twice weekly for the duration of the study. The tumour volume was calculated (taking length to be the longest diameter across the tumour and width to be the corresponding perpendicular diameter) using the formula: length (mm) x width (mm)^2/0.52. For efficacy studies, mice were randomized based on tumour volumes using stratified sampling and enrolled into control and treatment groups. Tumour growth inhibition from the start of treatment was quantified by measuring the difference in tumour volume between control and treated groups. Survival analysis was evaluated using Mantel-Cox test. Tumours were also taken for bioanalysis.
# [3] = system: telemetered dogs; conditions: dog, in vivo, 60 mg/kg
# [4] = In vitro release of AZD4320 from dendrimer conjugates in PBS pH 7.4, 37 °C; conditions: for Cummulative Release % / Mean % Released: PBS 37 °C
# Protocol: In vitro release half-life was calculated by least squares fitting to a 1st order release model.
# AZD4320 release kinetics were determined in vitro under physiological conditions.
# Nanoparticles were suspended in phosphate buffered saline (PBS) pH7.4 or rat plasma with 5%
# HEPES in HPLC vials and sample temperature maintained to 37 °C using a water bath with
# continuous stirring of the sample provided by iChem explorer unit. Periodically, 5-10 µL of
# sample was injected onto the column (Acquity UPLC BEH shield RP18 1.7 µm, 4.6 x 30 mm,
# Waters), bracketed by DMA to re-dissolve any precipitated AZD4320. The percent release was
# calculated by comparing unconjugated AZD4320 peak area to total unconjugated + dendrimer-
# conjugated AZD4320 peak areas. The half-life was calculated by least squares fitting to a 1st
compound,measurement,setting,value
CN(CCO)CCC(CSc1ccccc1)Nc1ccc(S(=O)(=O)NC(=O)c2ccc(N3CCC(C(O)c4ccccc4-c4ccc(Cl)cc4)CC3)cc2)cc1S(=O)(=O)C(F)(F)F (stereo not drawn) [AZD4320],Constant for return of released AZD4320 from tumour tissue to systemic circulation (first order) ktu,[1],0.053 h⁻¹
AZD4320-MIDA-PEG2100 [AZD0466],animals with complete and durable regressions,"[2]; SUDHL-4, 103 mg/kg AZD0466 + 10 mg/kg rituximab",5/6
same,animals with complete and durable regressions,"[2]; SUDHL-4, 172 mg/kg AZD0466 + 10 mg/kg rituximab",6/6
same,combination effect,"[2]; SUDHL-4, AZD0466 at various doses combined with 10 mg/kg rituximab",tumour regressions were seen in the combination groups at all doses
same,"SUDHL-4 xenograft efficacy, Geo Mean",[2]; day 1,200.82
same,"SUDHL-4 xenograft efficacy, Geo Mean",[2]; day 5,191.7
same,"SUDHL-4 xenograft efficacy, Geo Mean",[2]; day 9,255.655
same,"SUDHL-4 xenograft efficacy, Geo Mean",[2]; day 12,291.711
same,"SUDHL-4 xenograft efficacy, Geo Mean",[2]; day 16,450.847
same,"SUDHL-4 xenograft efficacy, Geo Mean",[2]; day 19,493.153
same,"SUDHL-4 xenograft efficacy, Geo Mean",[2]; day 23,795.158
same,"SUDHL-4 xenograft efficacy, Geo Mean",[2]; day 26,1047.96
same,"SUDHL-4 xenograft efficacy, Geo Mean",[2]; day 29,1181.66
same,adverse clinical signs,[3],not associated with any adverse clinical signs
same,Cummulative Release %,"[4]; 0.75 h, Replicate 1",2.01%
same,Cummulative Release %,"[4]; 0.90 h, Replicate 2",2.72%
same,Cummulative Release %,"[4]; 1.05 h, Replicate 3",2.87%
same,Cummulative Release %,"[4]; 1.67 h, Replicate 1",3.95%
same,Cummulative Release %,"[4]; 1.82 h, Replicate 2",4.63%
same,Cummulative Release %,"[4]; 1.97 h, Replicate 3",5.12%
same,Cummulative Release %,"[4]; 2.60 h, Replicate 1",6.37%
same,Cummulative Release %,"[4]; 2.75 h, Replicate 2",7.07%
same,Cummulative Release %,"[4]; 2.90 h, Replicate 3",7.57%
same,Cummulative Release %,"[4]; 3.52 h, Replicate 1",8.48%
same,Cummulative Release %,"[4]; 3.67 h, Replicate 2",9.50%
same,Cummulative Release %,"[4]; 3.83 h, Replicate 3",9.95%
same,Cummulative Release %,"[4]; 4.45 h, Replicate 1",10.66%
same,Cummulative Release %,"[4]; 4.60 h, Replicate 2",11.87%
same,Cummulative Release %,"[4]; 4.75 h, Replicate 3",12.24%
same,Cummulative Release %,"[4]; 5.37 h, Replicate 1",12.82%
same,Cummulative Release %,"[4]; 5.52 h, Replicate 2",13.72%
same,Cummulative Release %,"[4]; 5.68 h, Replicate 3",14.33%
same,Cummulative Release %,"[4]; 6.30 h, Replicate 1",15.04%
same,Cummulative Release %,"[4]; 6.45 h, Replicate 2",16.29%
same,Cummulative Release %,"[4]; 6.60 h, Replicate 3",15.86%
same,Cummulative Release %,"[4]; 7.22 h, Replicate 1",15.94%
same,Cummulative Release %,"[4]; 7.37 h, Replicate 2",17.47%
same,Cummulative Release %,"[4]; 7.53 h, Replicate 3",17.99%
same,Cummulative Release %,"[4]; 8.15 h, Replicate 1",18.09%
same,Cummulative Release %,"[4]; 8.30 h, Replicate 2",19.34%
same,Cummulative Release %,"[4]; 8.45 h, Replicate 3",19.77%
same,Cummulative Release %,"[4]; 9.07 h, Replicate 1",20.00%
same,Cummulative Release %,"[4]; 9.23 h, Replicate 2",21.33%
same,Cummulative Release %,"[4]; 9.38 h, Replicate 3",21.63%
same,Cummulative Release %,"[4]; 10.00 h, Replicate 1",22.23%
same,Cummulative Release %,"[4]; 10.15 h, Replicate 2",23.21%
same,Cummulative Release %,"[4]; 10.30 h, Replicate 3",23.50%
same,Cummulative Release %,"[4]; 10.92 h, Replicate 1",23.70%
same,Cummulative Release %,"[4]; 11.08 h, Replicate 2",25.81%
same,Cummulative Release %,"[4]; 11.23 h, Replicate 3",25.99%
same,Cummulative Release %,"[4]; 11.85 h, Replicate 1",25.62%
same,Cummulative Release %,"[4]; 12.00 h, Replicate 2",26.79%
same,Cummulative Release %,"[4]; 12.15 h, Replicate 3",27.44%
same,Cummulative Release %,"[4]; 12.77 h, Replicate 1",27.74%
same,Cummulative Release %,"[4]; 12.93 h, Replicate 2",29.41%
same,Cummulative Release %,"[4]; 13.08 h, Replicate 3",29.66%
same,Cummulative Release %,"[4]; 13.70 h, Replicate 1",29.02%
same,Cummulative Release %,"[4]; 13.85 h, Replicate 2",30.77%
same,Cummulative Release %,"[4]; 14.00 h, Replicate 3",31.43%
same,Cummulative Release %,"[4]; 14.63 h, Replicate 1",30.82%
same,Cummulative Release %,"[4]; 14.78 h, Replicate 2",32.39%
same,Cummulative Release %,"[4]; 14.93 h, Replicate 3",33.56%
same,Cummulative Release %,"[4]; 15.55 h, Replicate 1",32.52%
same,Cummulative Release %,"[4]; 15.70 h, Replicate 2",34.45%
same,Cummulative Release %,"[4]; 15.85 h, Replicate 3",35.54%
same,Cummulative Release %,"[4]; 16.48 h, Replicate 1",34.39%
same,Cummulative Release %,"[4]; 16.63 h, Replicate 2",35.86%
same,Cummulative Release %,"[4]; 16.78 h, Replicate 3",36.74%
same,Cummulative Release %,"[4]; 17.40 h, Replicate 1",35.32%
same,Cummulative Release %,"[4]; 17.55 h, Replicate 2",37.92%
same,Cummulative Release %,"[4]; 17.71 h, Replicate 3",39.37%
same,Cummulative Release %,"[4]; 18.33 h, Replicate 1",37.81%
same,Cummulative Release %,"[4]; 18.48 h, Replicate 2",39.44%
same,Cummulative Release %,"[4]; 18.63 h, Replicate 3",41.92%
same,Cummulative Release %,"[4]; 19.25 h, Replicate 1",40.42%
same,Cummulative Release %,"[4]; 19.40 h, Replicate 2",41.10%
same,Cummulative Release %,"[4]; 19.56 h, Replicate 3",42.30%
same,Cummulative Release %,"[4]; 20.18 h, Replicate 1",40.20%
same,Cummulative Release %,"[4]; 20.33 h, Replicate 2",43.40%
same,Cummulative Release %,"[4]; 20.48 h, Replicate 3",44.87%
same,Cummulative Release %,"[4]; 21.10 h, Replicate 1",42.52%
same,Cummulative Release %,"[4]; 21.25 h, Replicate 2",45.67%
same,Cummulative Release %,"[4]; 21.41 h, Replicate 3",46.38%
same,Cummulative Release %,"[4]; 22.03 h, Replicate 1",45.50%
same,Cummulative Release %,"[4]; 22.18 h, Replicate 2",47.56%
same,Cummulative Release %,"[4]; 22.33 h, Replicate 3",48.29%
same,Cummulative Release %,"[4]; 22.95 h, Replicate 1",46.44%
same,Cummulative Release %,"[4]; 23.10 h, Replicate 2",48.78%
same,Cummulative Release %,"[4]; 23.88 h, Replicate 1",47.76%
same,Cummulative Release %,"[4]; 24.03 h, Replicate 2",50.99%
same,Cummulative Release %,"[4]; 24.80 h, Replicate 1",50.26%
same,Cummulative Release %,"[4]; 24.95 h, Replicate 2",53.17%
same,Mean % Released,[4]; mean time 0.90 h,2.53%
same,Mean % Released,[4]; mean time 1.82 h,4.57%
same,Mean % Released,[4]; mean time 2.75 h,7.00%
same,Mean % Released,[4]; mean time 3.67 h,9.31%
same,Mean % Released,[4]; mean time 4.60 h,11.59%
same,Mean % Released,[4]; mean time 5.52 h,13.62%
same,Mean % Released,[4]; mean time 6.45 h,15.73%
same,Mean % Released,[4]; mean time 7.37 h,17.14%
same,Mean % Released,[4]; mean time 8.30 h,19.07%
same,Mean % Released,[4]; mean time 9.23 h,20.98%
same,Mean % Released,[4]; mean time 10.15 h,22.98%
same,Mean % Released,[4]; mean time 11.08 h,25.17%
same,Mean % Released,[4]; mean time 12.00 h,26.61%
same,Mean % Released,[4]; mean time 12.93 h,28.93%
same,Mean % Released,[4]; mean time 13.85 h,30.40%
same,Mean % Released,[4]; mean time 14.78 h,32.26%
same,Mean % Released,[4]; mean time 15.70 h,34.17%
same,Mean % Released,[4]; mean time 16.63 h,35.66%
same,Mean % Released,[4]; mean time 17.55 h,37.54%
same,Mean % Released,[4]; mean time 18.48 h,39.72%
same,Mean % Released,[4]; mean time 19.40 h,41.27%
same,Mean % Released,[4]; mean time 20.33 h,42.83%
same,Mean % Released,[4]; mean time 21.25 h,44.86%
same,Mean % Released,[4]; mean time 22.18 h,47.12%
same,Mean % Released,[4]; mean time 23.03 h,47.61%
same,Mean % Released,[4]; mean time 23.95 h,49.38%
same,Mean % Released,[4]; mean time 24.88 h,51.72%
same,In vitro release half-life (t1/2) of AZD4320,"[4]; PBS pH 7.4, 37 °C, first order fit",25.5 h

# Reference: PMC7835349 (Communications Biology, 2021)
